Laboratory results: the DeepSol protein solubility set

Experiment: soluble on expression in E. coli; label from the status in PepcDB or PDB records

Sequence: MIFRKFLNFLKPYKMRTDPIIFVIGCTGTGKSDLGVAIAKKYGGEVISVDSMQFYKGLDIATNKITEEESEGIQHHMMSFLNPSESSSYNVHSFREVTLDLIKKIRARSKIPVIVGGTTYYAESVLYENNLIETNTSDDVDSKSRTSSESSSEDTEEGISNQELWDELKKIDEKSALLLHPNNRYRVQRALQIFRETGIRKSELVEKQKSDETVDLGGRLRFDNSLVIFMDATPEVLEERLDGRVDKMIKLGLKNELIEFYNEHAEYINHSKYGVMQCIGLKEFVPWLNLDPSERDTLNGDKLFKQGCDDVKLHTRQYARRQRRWYRSRLLKRSDGDRKMASTKMLDTSDKYRIISDGMDIVDQWMNGIDLFEDISTDTNPILKGSDANILLNCEICNISMTGKDNWQKHIDGKKHKHHAKQKKLAETRT
- soluble on expression in E. coli: not soluble

Sequence: SNAMDKYPFLREAGSSFKDRDVTKMSDLIATWDGQDIKGPALIGVPLSKSSISHSGASFAPGTIRQALKHSSAYSAELGEHVVSELLYDLGDIDIHVTDIVKSHHHIFQTMHALLSDHPDWVPLILGGDNSISYSTIKAIAQTKGTTAVIQFDAHHDVRNTEDGGPTNGTPFRRLLDEEIIEGQHLIQLGIREFSNSQAYEAYAKKHNVNIHTMDMIREKGLIPTIKEILPVVQDKTDFIFISVDMDVLDQSHAPGCPAIGPGGLYTDELLEAVKYIAQQPNVAGIEIVEVDPTLDFRDMTSRAAAHVLLHALKGMKLSPFK
- soluble on expression in E. coli: soluble

Sequence: MGSDKIHHHHHHMPYSSKEEAAQGWADIIARARSCSAGAARKAVAQLGRRDLFFLLTRLLGREEMFNDWCFARCAEVQRQPDGMLDLWAREHYKSTIITFGQSIRDILNDPEITIGIFSHSRPVAKGFLAQIKHEFEQNHALKTLYPDVLYSDPKRQSPRWSLDGGLVVRRSTNPKEATVEAWGLVDGQPTGKHFRLLVYDDVVTRESVTSPEMIAKVTECWALSLNLGARGGACRTIGTRYHYNDTYKTMMDRKAAEPRIHAATADGTPDGPSVFLPQNELADKRRRMGPFVFGCQMLQNPVADRMQGFREEWLRWWQPGAASWQAMNRYILVDPAASRKEQADWTVMLVVGLGADGNYYLIDGIRDRLNLTGRAGALFRLHRTYRPLAVGYEQYGMQADIEYMHTEMDRRNHRFDITPLAGRLAKADRIRRLVPLFEGGRVYLPRVCPFTDSEGRQRDLSRELVTEEYLAFPVCGHDDMLDCLARITDSALGAHPAVDSNAQYESTANMEYPLWT
- soluble on expression in E. coli: not soluble

Sequence: MAHHHHHHMAERSSTLVINEAKTKNRLSDSLRSPTDRTREHLISHRNFSSVLESAADCTSASSTPDLQEEEDVQHKRALDLFSATPHSGEFSPLIEWLLRRGERGDVGAPTASQKDGDEYTQASFFNEDYIMNLCAAATAVLGKEPALLDLEVVAHDTLVVVGDIHGQFQDLYTSVLCQQYDRRRCNPEGRDCRFLFMGDYVDRGPHSLEVVLLLLALKVEYPTLVYLTRGNHEEEKTSRVYGFLTEATSSLGAAAGTAVWSAVNKVFLDLPLAAIVQTLYMRFFVTHGGLSPGLQNVEVICALERHNYSCGNITAAEDDLIAGLLWSDPTNEVAMYKRNPRGCGFLFGPSASNRFCADNNFDFICRAHQVAMEGYMWTHNDRVLTVFSAPNYCGVNRNKGAVLLIKGYSRRPIVQQYDSAEKSEAAPARKTDFAFADMFA
- soluble on expression in E. coli: not soluble

Sequence: MEKIVVIKYKDIKLKSPILIGGLPGIGNVGKIAADYIVEKLNMTKMYDIFSQYLPPQVFINDDSVVHLVRNSIYYKKMRGKHDLVILAGDFQGTTQEAQYELSYQVLQIAKEIGVSMIYTLGGYSIGKIVDKPRVLGAVTDKNLVADLEKNGVVFPKGEPGGGIVGSAGLILGLGMELFNMNGACLMGETSGYFADPKSAMEVLNVLQRQLGIKIDMSDIETRSKQIEQITGKMAEEFQNKQNKEDLGYFG
- soluble on expression in E. coli: soluble

Sequence: MTIYMFNNVNLQRQYMIDTIIFDFDGVILNSEPMHFEAIVQVLNQSGINLAYEEYMTHYLGLSDISLFPKILNDKGLAFSSTEIHQVIERKVRVYNELIENSEQLPMTPDLDWFLVRVARQYGKIGICSGSNRHSIIKILEKIHCGRLACYFKTIVSCEDVSLGKPSPEGYLLAAHRLQSKPENCLVIEDSEHGVAAAKAGGMLVAGLLTTLSRDLLANADMIVHDFKELDHLLNSH
- soluble on expression in E. coli: not soluble

Sequence: MGKMRTPQEVPARLDALAEAARKLKFDVREPVDAGAGAIGAVHSLDYLRFLREAHARWKQLPDDWGDEVVSNVFVREPNALRGVLAQAARYLADGSCPVGPHTWQSAYWAAQCAISGAQTLLDGERHAYALCRPPGHHARRDAAGGFCYLNNAAIAAQMLTQRYKRVAILDTDMHHGQGIQEIFYERSDVLYVSIHGDPENFYPVVAGFENERGAGEGYGYNVNLPMPHGSPEPVFFDRLQQAQRAIELFQPDALVLSLGFDVFEKDPQAMVAVSANGFERLGQAIGAFKLPTLIVQEGGYYIEGLEDNAERFFAGLAKALEHHHHHH
- soluble on expression in E. coli: not soluble

Sequence: MKALHFGAGNIGRGFIGKLLADAGIELTFADVNQTVLDALNARHSYQVHVVGENEQVDTVSGVNAVSSIGDEVVDLIAEVDLVTTAVGPVVLERIAPAIAKGLAQRKAQGTERPLNIIACENMVRGTTQLKGHVFNALAEEHKAWVEAHIGFVDSAVDRIVPPSASATHDPLEVTVETFSEWIVDKTQFKGALPTIPGMELTDNLMAFVERKLFTLNTGHAITAYLGKLAGHQTIRDAILDEKIRAVVQGAMEESGAVLIKRYAFDPQKHAAYIQKILGRFENPYLKDDVERVGRQPLRKLSAGDRLIKPLLGTLEYGLPHRNLVKGIAAAMHFRSEDDPQAQELAALIADKGPQAALAQISGLDAASDVVAEAVNDYNAEK
- soluble on expression in E. coli: not soluble

Sequence: MSLMSSKPIYKRVLLKASGEALMGDQGFGIDVAVADRIASDIAEARAMGVEVGVVVGGGNIFRGVAVASKGGDRVTGDHMGMLATVINALALATSLRKLSIDTVVLSAIAMPEICESFSQRAALHHLAQGRVVIFAGGTGNPFFTTDSAAALRAAEMGAEAIFKGTQVDGIYSADPKKDPTATRFDELTHSEVLGKGLAVMDIAAVALARENHIPIIVFSIHEKGGFAQILTGGGRKTIVHDKEGHHHHHH
- soluble on expression in E. coli: soluble

Sequence: MDSVIQKRIFVGNIFHNADDCYSELLDRFGKFGDCQDFQFEKHNHFAFIDIRFNDEADFNKLRKSFNNVKFKGNILKVDEAKPNWESTWAVQHAKDLKEDIILNAKMKKKNWQHYKKMENVAKSWKDHKEVIAGRMREAPRKRSQLRNITFRINVNGSLKVYKCYKTKLWGYERNKELNDLVYKFTNNFWKNGYNHIVDRLDYSRAVKTVRFKNGLKQLTVSKDENVCSGEMDSDENMSEEEKEKNNVILNDLLKDFDFDKPMTLNDSDEELLTEQRKGEEEEEEEEEKEVNAPEYENVNKTKDQSTLPQEKPEERKEQDEGDGQEDNEFIPTFTKEIGQGTISNTETLRNLFNPNEAEPVSQFKLIEDSDNDIDHAKDVDVNQLEEEVSKSSDTLGLTSAPVPHVSRDKDNKNFLFFPHLQSPFLVGQTQLSKVRAPGRETMLSNWDEEFWANRGNWTRDMRRKMKDALKHRKRKQSKSGLLL
- soluble on expression in E. coli: not soluble

Sequence: MASLSRALRVAAAHPRQSPTRGMGPCNLSSAAGPTAEKSVPYQRTLKEGQGTSVVAQGPSRPLPSTANVVVIGGGSLGCQTLYHLAKLGMSGAVLLERERLTSGTTWHTAGLLWQLRPSDVEVELLAHTRRVVSRELEEETGLHTGWIQNGGLFIASNRQRLDEYKRLMSLGKAYGVESHVLSPAETKTLYPLMNVDDLYGTLYVPHDGTMDPAGTCTTLARAASARGAQVIENCPVTGIRVWTDDFGVRRVAGVETQHGSIQTPCVVNCAGVWASAVGRMAGVKVPLVAMHHAYVVTERIEGIQNMPNVRDHDASVYLRLQGDALSVGGYEANPIFWEEVSDKFAFGLFDLDWEVFTQHIEGAINRVPVLEKTGIKSTVCGPESFTPDHKPLMGEAPELRGFFLGCGFNSAGMMLGGGCGQELAHWIIHGRPEKDMHGYDIRRFHHSLTDHPRWIRERSHESYAKNYSVVFPHDEPLAGRNMRRDPLHEELLGQGCVFQERHGWERPGWFHPRGPAPVLEYDYYGAYGSRAHEDYAYRRLLADEYTFAFPPHHDTIKKECLACRGAAAVFDMSYFGKFYLVGLDARKAADWLFSADVSRPPGSTVYTCMLNHRGGTESDLTVSRLAPSHQASPLAPAFEGDGYYLAMGGAVAQHNWSHITTVLQDQKSQCQLIDSSEDLGMISIQGPASRAILQEVLDADLSNEAFPFSTHKLLRAAGHLVRAMRLSFVGELGWELHIPKASCVPVYRAVMAAGAKHGLINAGYRAIDSLSIEKGYRHWHADLRPDDSPLEAGLAFTCKLKSPVPFLGREALEQQRAAGLRRRLVCFTMEDKVPMFGLEAIWRNGQVVGHVRRADFGFAIDKTIAYGYIHDPSGGPVSLDFVKSGDYALERMGVTYGAQAHLKSPFDPNNKRVKGIY
- soluble on expression in E. coli: not soluble

Sequence: MGSDKIHHHHHHMQDSMLSGLFGALTTEHRLNNIANNLANVNTNGYKRDVLAFKDTMALFAHDEIMEPMANVRSKKLFPEPLHVARPRIAVARTDFSQGSFHYTSDPLDLAISGNGFFKVRTPEGEFYTRNGHFRQTSDGQLVTMQGWPVLSEGGDINLPQGKNLQVASDGRIAVDGVDVGQLQVVTVSDLEGLEKLGGNLYRLREGSTAGEVPVGPDVIVSQGYIETSNVEVVNEMVNMIETQRQFEAYQKVMQTSDTVDRDAITKIGRGR
- soluble on expression in E. coli: not soluble

Sequence: MSLNQTILNRVKTRVMHQLVSSLIYENIVVYKASYQDGVGHFTIEGHDSEYRFTAEKTHSFDRIRITSPIERVVGDEADTTTDYTQLLREVVFTFPKNDEKLEQFIVELLQTELKDTQSMQYRESNPPATPETFNDYEFYAMEGHQYHPSYKSRLGFTLSDNLKFGPDFVPNVKLQWLAIDKDKVETTVSRNVVVNEMLRQQVGDKTYEHFVQQIEASGKHVNDVEMIPVHPWQFEHVIQVDLAEERLNGTVLWLGESDELYHPQQSIRTMSPIDTTKYYLKVPISITNTSTKRVLAPHTIENAAQITDWLKQIQQQDMYLKDELKTVFLGEVLGQSYLNTQLSPYKQTQVYGALGVIWRENIYHMLIDEEDAIPFNALYASDKDGVPFIENWIKQYGSEAWTKQFLAVAIRPMIHMLYYHGIAFESHAQNMMLIHENGWPTRIALKDFHDGVRFKREHLSEAASHLTLKPMPEAHKKVNSNSFIETDDERLVRDFLHDAFFFINIAEIILFIEKQYGIDEELQWQWVKGIIEAYQEAFPELNNYQHFDLFEPTIQVEKLTTRRLLSDSELRIHHVTNPLGVGGINDATTISETEGHHHHHH
- soluble on expression in E. coli: soluble

Sequence: MSGATPVFTEINQIQGTGDKSPLISSGFISDDEYFVQGVVTARGESLLKGFYLQGLNDDFDPNSSEGIFVSTGSAPSLEIQPGALVCVKAKVQEYYGQTQLKPDTNNFLVQGHQAPVSVTELTINENETLAQALERHEGMQVKLTSHSDLRITRNFSFDYASKRNNMVLSHGEPLFKPTQLFAAESPEAIQLAEENAKRQITIESDNKAPNGEVPYFPDFATDSNQDGSADSYLRLGARIEGLEGVIAYSYGQYRLVTTNTISQENIITQAFDEDGDTLFNVERTDEPSIDDADLTITSFNVLNYFTSVAAGGLEHHHHHH
- soluble on expression in E. coli: not soluble

Sequence: MFLGTYTPKLDDKGRLTLPAKFRDALAGGLMVTKSQDHSLAVYPRAAFEQLARRASKAPRSNPEARAFLRNLAAGTDEQHPDSQGRITLSADHRRYASLSKDCVVIGAVDYLEIWDAQAWQNYQQIHEENFSAASDEALGDIF
- soluble on expression in E. coli: not soluble

Sequence: AEMKTDAATLAQEAGNFERISGDLKTQIDQVESTAGSLQGQWRGAAGTAAQAAVVRFQEAANKQKQELDEISTNIRQAGVQYSRADEEQQQALSSQMGF
- soluble on expression in E. coli: soluble

Sequence: MTVQQSGRRERKKAATRQKIADTALRLFLERGYDAVGIRDVAAEADVAVTTLFSHFASKEALVFEQDEDFEHRLTRAVTDRAPHEPLIPALRREILALVRHCTADSAAPIWRMIDASPALRKYDESVRLRHAEALATAIAADPTRTRSETAARTLARFVIDAYSLSREAPDPEAALDEIFPMIEAAWAAARPPHPT
- soluble on expression in E. coli: not soluble
